Here are results for two molecules from patent publication US20230121197A1, “ANTIBODIES SPECIFICALLY BINDING THE CARBOXYMETHYLATED CATALYTIC SUBUNIT OF PROTEIN PHOSPHATASE 2A” (Medizinische Universität Wien, priority 2020, published 2023).

In experiment [1] the target is T1, HA-PP6c (Mus musculus, UniProt Q9CQR6).
T1 construct: expressed in transfected cells; host or cells: NIH3T3 mouse fibroblasts, retroviral pBabe hygro HA-PP6c
T1 sequence (Q9CQR6 1-305): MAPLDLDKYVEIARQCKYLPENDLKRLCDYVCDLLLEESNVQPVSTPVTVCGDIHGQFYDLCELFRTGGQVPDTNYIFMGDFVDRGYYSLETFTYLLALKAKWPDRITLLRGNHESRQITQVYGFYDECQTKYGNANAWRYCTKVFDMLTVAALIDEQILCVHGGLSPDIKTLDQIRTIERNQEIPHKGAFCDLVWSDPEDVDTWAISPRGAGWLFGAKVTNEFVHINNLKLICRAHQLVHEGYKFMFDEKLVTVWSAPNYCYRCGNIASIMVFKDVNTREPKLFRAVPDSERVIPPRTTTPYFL
The experiment in a line: Immunoblotting of anti-HA immunoprecipitates of NIH3T3 cells, PP6c. The class given is binding. The text has this:
The catalytic subunits of protein phosphatase 4 (PP4c) and 6 (PP6c) are closely related to PP2Ac with approximately 50% sequence identity. PP2Ac, PP4c and PP6c share the C-terminal DYFL or YFL motif, respectively (FIG. 8A). Therefore, a potential cross-reactivity of 7C10-C5 with α-carboxymethylated PP4c and/or PP6c was examined and compared to another anti-carboxymethyl-PP2Ac antibody 2A10. 2A10 is a carboxymethyl-PP2Ac specific antibody that has been raised against a larger C-terminal PP2Ac peptide (amino acids 302-309, carboxymethylated Leu^309) and that has been shown before to cross-react with α-carboxymethylated PP4c (Lee (2014), Biochem Biophys Res Commun 452, 42-47). HA tagged human PP2Ac a, mouse HA PP4c or mouse HA PP6c from NIH3T3 mouse fibroblasts stably expressing these HA-tagged proteins were immunoprecipitated. The precipitated proteins were then analyzed by immunoblotting with anti-carboxymethyl-PP2Ac antibodies 7C10-C5 or 2A10.
Specifically, 500 μl corresponding to 1 mg of whole cell protein lysates of NIH3T3 mouse fibroblasts were incubated with anti-hemagglutinin (HA) antibody (clone 12CA5) crosslinked to BSA-coated protein A-Sepharose beads (GE-Healthcare) to immunoprecipitate HA-epitope tagged PP2Ac, PP4c or PP6c for 1 h. […]
(In general: A western blot detects proteins with antibodies after separation by electrophoresis.)

Experiment [2] addresses α-carboxymethylated PP2Ac (Homo sapiens, UniProt P67775). Put plainly: IHC specificity validation (NaOH treatment of slides). On the set-up: NaOH treatment to chemically remove the methyl group from the methylated PP2A-C; from tissue; host or cells: de-paraffinized tissue slides. To be noted: slides incubated in 200 mM NaOH. The procedure:
Immunohistochemical staining was performed on the DAKO Autostainer (DAKO, Carpinteria, Calif.) using Envision+ or liquid streptavidin-biotin and diaminobenzadine (DAB) as the chromogen. De-paraffinized sections were labeled with mouse monoclonal antibody 7C10-C5 (1:200) overnight at 4 C. Microwave 10 mM Tris HCl, pH9 containing 1 mM EDTA epitope retrieval was used prior to staining. Appropriate negative (no primary antibody) and positive controls (pancreas) were stained in parallel with each set of slides studied. Peptide competition studies were performed using 2 peptides ([…]*) (SEQ ID NO:115) differing in the methylation status at position L (marked with a *); FIG. 13E: Peptides were incubated at ambient temperature for 60 mins at 10-1000× molar ratios before being applied to the slide. FIG. 13F: Before being stained, slides were incubated in freshly made 200 mM NaOH for 10 mins at 4° C. and then neutralized by several washes in TBST.
Stained slides were scanned using an APERIO AT2 (Leica) and the digital images imported into QuPath (Bankhead et al., 2017). TMA cores were analyzed for percentage of cells staining and intensity. In FIGS. 13E and F, higher visibility of the dark cell nuclei indicates weaker α-carboxymethylated PP2Ac staining.

In experiment [3] the target is T2, mouse HA PP4c, carboxymethylated (immunoprecipitated from NIH3T3 cells) (mouse) (UniProt P97470).
T2 sequence (C-terminal leucine α-carboxyl methyl ester (cellular methylation), looked up): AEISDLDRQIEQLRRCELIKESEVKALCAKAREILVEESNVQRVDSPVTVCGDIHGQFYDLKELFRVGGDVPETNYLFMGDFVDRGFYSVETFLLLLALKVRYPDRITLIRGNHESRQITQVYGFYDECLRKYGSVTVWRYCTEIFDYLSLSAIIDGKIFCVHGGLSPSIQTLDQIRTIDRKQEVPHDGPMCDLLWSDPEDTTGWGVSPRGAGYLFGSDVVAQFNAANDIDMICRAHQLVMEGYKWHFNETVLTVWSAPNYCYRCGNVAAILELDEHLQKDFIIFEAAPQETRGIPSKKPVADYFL
The experiment in a line: Western blot quantification, signal normalized to HA level, HA-PP2A set to 1, N=3.

α-carboxymethylated PP2Ac, sequence (P67775 whole entry): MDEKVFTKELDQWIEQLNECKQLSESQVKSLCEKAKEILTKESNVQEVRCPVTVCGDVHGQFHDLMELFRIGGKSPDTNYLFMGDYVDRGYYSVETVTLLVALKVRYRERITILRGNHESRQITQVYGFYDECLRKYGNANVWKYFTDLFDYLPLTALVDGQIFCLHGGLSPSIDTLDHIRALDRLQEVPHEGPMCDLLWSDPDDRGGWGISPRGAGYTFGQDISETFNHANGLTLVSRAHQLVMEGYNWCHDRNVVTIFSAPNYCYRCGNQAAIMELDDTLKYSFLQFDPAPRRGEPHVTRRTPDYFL

B1: 7C10-C5: α-carboxymethylation specific mouse monoclonal IgG1 antibody from single clone hybridoma 7C10-C5 (DSM ACC3350) (antibody)
heavy: MYRMQLLSCIALSLALVTNSDVQLQESGPGLVKPSQSLSLTCSVTGYSITSGYYWNWIRQFPGNKLEWMGYISYDGSNNYNPSLKNRISITRDTSKNQFFLKLNSVTTEDTATYYCAGRFAYWGQGTLVTVSAAKTTAPSVYPLAPVCGDTTGSSVTLGCLVKGYFPEPVTLTWNSGSLSSGVHTFPAVLQSDLYTLSSSVTVTSSTWPSQSITCNVAHPASSTKVDKKIEPRGPTIKPCPPCKCPAPNLLGGPSVFIFPPKIKDVLMISLSPIVTCVVVDVSEDDPDVQISWFVNNVEVHTAQTQTHREDYNSTLRVVSALPIQHQDWMSGKEFKCKVNNKDLPAPIERTISKPKGSVRAPQVYVLPPPEEEMTKKQVTLTCMVTDFMPEDIYVEWTNNGKTELNYKNTEPVLDSDGSYFMYSKLRVEKKNWVERNSYSCSVVHEGLHNHHTTKSFSRTPGK
light: MDMRVPAQLLGLLLLWLSGARCDVLMTQTPLSLPVSLGDQASISCRSSQSIVHSNGNTYLEWYLQKPGQSPKLLIYKVSNRFSGVPDRFSGSGSGTDFTLKINRVEAEDLGVYYCFQGSHVPWTFGGGTKLEIKADAAPTVSIFPPSSEQLTSGGASVVCFLNNFYPKDINVKWKIDGSERQNGVLNSWTDQDSKDSTYSMSSTLTLTKDEYERHNSYTCEATHKTSTSPIVKSFNRNEC
modifications: Amino acid sequence of the recombinant 7C10-C5 heavy chain; Amino acid sequence of the recombinant 7C10-C5 light chain
Turning to B1, the “detection of PP6c” value in experiment [1] (Western blot of HA immunoprecipitates) is on record as “did not detect”. In addition, in experiment [1] (Western blot, suggested since no discernable signal), the “binding to carboxymethylated PP2Ac stronger than to carboxymethylated PP6c” value is 100-fold or even 500-fold. In addition, the “IHC staining after chemical removal of the methyl group” value in experiment [2] is recorded as “diminished staining upon treatment with NaOH”.

B2: 7C10-C5 monoclonal antibody (antibody, V domains shown)
VH: DVQLQESGPGLVKPSQSLSLTCSVTGYSITSGYYWNWIRQFPGNKLEWMGYISYDGSNNYNPSLKNRISITRDTSKNQFFLKLNSVTTEDTATYYCAGRFAYWGQGTLVTVSA
VL: DVLMTQTPLSLPVSLGDQASISCRSSQSIVHSNGNTYLEWYLQKPGQSPKLLIYKVSNRFSGVPDRFSGSGSGTDFTLKINRVEAEDLGVYYCFQGSHVPWTFGGGTKLEIK
notes: Used as hybridoma culture supernatant (ELISA, Western blot, IHC) or at 50 µg/mL (SPR); also called 7C10 X63; clone 7C10-C5
Regarding B2, in experiment [3], the 7C10/HA blot signal relative to HA-PP2A = 1 is 0.01 7C10/HA.
